Source: doi:10.1101/2022.04.26.489556

Molecular target: T1, Rv1019 (TetR family regulator) (UniProt P96381 1-197)
T1 sequence: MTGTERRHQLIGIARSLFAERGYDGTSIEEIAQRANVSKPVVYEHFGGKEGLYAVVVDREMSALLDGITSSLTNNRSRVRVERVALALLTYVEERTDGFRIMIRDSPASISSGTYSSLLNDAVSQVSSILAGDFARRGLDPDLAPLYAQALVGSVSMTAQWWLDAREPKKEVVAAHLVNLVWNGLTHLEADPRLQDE
Assay: EMSA

B1: MSMEG_1885 palindrome (MS_1886 PAL oligos) (dsDNA)
DNA 1: TAAGTTACGGTACCGTAGGTTG
DNA 2: CAACCTACGGTACCGTAACTTA
B1: binds.
